This series is described as follows: yeast display, Sf9 membrane polyspecificity reagent, FACS + sequencing; frameworks hold sequencing errors. In short, it runs like this: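 Polyreactivity labels are assigned by the sorting gate from which each nanobody was recovered. The gates were low and high (top ~1%), set on anti-HA fluorescence for expression and streptavidin fluorescence for reagent binding. Before sorting, galactose-induced (36–48 hours) yeast display cells were stained for 1 hour at 4 °C with 10% biotinylated, detergent-solubilized Sf9 membrane reagent.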
For the sequence “QVQLVESGGGLVQAGGSLRLSCAASGLIFARYVMGWYRHAPGKERELVADIDKGGGSTYYADSVKGRFTISRDNAKNTDSLQMNSLKPEDSSVYYCIADFDGWWWDDYRGQGTQVTVSS”, the “polyreactivity (PSR sort gate)” value was “high polyreactivity”.
For “QVQLVESGGGLVQAGGSLRLSCAASGLIFAYNAMGWYRQAPGKERELVAAITGGGDGTYYADSVKGRFTISRDNAKNTVYLQMNSLKPEDTAVYYCAADFGNSPYIKVYYYWGQGTQVTVSS” the value was “low polyreactivity”.
The result for “QVQLVESGGGLVQAGGSLRLSCAASGLIFAYNTMGWYRQAPGKERELVAGITSSGSTYYADSVKGRFTISRDNAKNTVYLQMNSLKPEDTAVYYCAAEWDDGRSWYWYYLVGFEYWGQGTQVTVSS” reads “high polyreactivity”.
The result for “QVQLVESGGGLVQAGGSLRLSCAASGLIFDRNAMGWYRQAPGKERELVAAITYSGSRTYYADSVKGRFTISRDNAKNTVYLQMNSLKPEDTAVYYCAARHRYSAGTEYNYWGQGTQVTVSS” reads “high polyreactivity”.
In the case of “QVQLVESGGGLVQAGGSLRLSCAASGLIFDSYAMGWYRQAPGKERELVAAITYTGGSTYYADSVKGRFTISRDNAKNTVYLQMNSLKPEDTAVYYCAAVTRYAGRIRYGYWGQGTQVTVSS”, the “polyreactivity (PSR sort gate)” value is “high polyreactivity”.
For “QVQLVESGGGLVQAGGSLRLSCAASGLIFDSYVMGWYRQAPGKERELVAVISGSGGSTYYADSVKGRFTISRDNAKNTVYLQMNSLKPEDTAVYYCAAQYSAGQYYGYGYWGQGTQVTVSS” the value was “high polyreactivity”; for “QVQLVESGGGLVQAGGSLRLSCAASGLIFEPYVMGWYRQAPGKERELVASITWSAGSTYYADSVKGRFTISRDNAKNTVYLQMNSLKPDDTAVYYCAARHGYGWGFSGVPAQGYEYWGQGTQVTVSS”, “low polyreactivity”; for “QVQLVESGGGLVQAGGSLRLSCAASGLIFFFYAMGWYRQAPGKERELVASISGGGITYYADSVKGRFTISRDNAKNTVYLQMNSLKPEDTAVYYCAARVLDWRGDIHDSEYWGQGTQVTVSS”, “low polyreactivity”.
“QVQLVESGGGLVQAGGSLRLSCAASGLIFFINDMGWYRQAPGKERELVAAITSGGSTYYADSVKGRFTISRDNAKNTVYLQMNSLKPEDTAVYYCAADSYDWYDYWGQGTQVTVSS”: the “polyreactivity (PSR sort gate)” value was “high polyreactivity”.
For “QVQLVESGGGLVQAGGSLRLSCAASGLIFGGYAMGWYRQAPGKERELVAAISWDDGDTYYADSVKGRFTISRDNAKNTVYLQMNSLKPEDSAVYYCAAESLSGAHGYWGQGTQVTVSS” the value was “low polyreactivity”.
The result for “QVQLVESGGGLVQAGGSLRLSCAASGLIFGPYAMGWYRQAPGKERELVAGISRGGSTYYADSVKGRFTISRDNAKNTVYLQMNSLKPEDTAVYYCNAYTYPPYYSKWVRYRYDYWGQGTQVTVSS” reads “high polyreactivity”.
Consider “QVQLVESGGGLVQAGGSLRLSCAASGLIFGTNAMGWYRQAPGKERELVAAISGSGGRTYYADSVKGRFTISRDNAKNTVYLQMNSLKPEDTAVYYCATAWYLGRYRRLGYWGQGTQVTVSS”, for which the “polyreactivity (PSR sort gate)” value is recorded as “high polyreactivity”.
“QVQLVESGGGLVQAGGSLRLSCAASGLIFGTNAMGWYRQAPGKERELVAYITSGGSTYADSVKGRFTISRDNAKNTVYLQMNSLKPEDTAVYYCAAYVFWAFYEYDYWGQGTQVTVSS”: the “polyreactivity (PSR sort gate)” value is “low polyreactivity”.
For “QVQLVESGGGLVQAGGSLRLSCAASGLIFGWNARGWYRQAPGKERELVAAINSGGITNYADSVKGRFTISRDNAKNTVYFQMNWLKPEDTAVYYCAADVVQYGLDWYGEEYESWGQGTQVTVSS” the value was “low polyreactivity”; for “QVQLVESGGGLVQAGGSLRLSCAASGLIFGWYAMGWYRQAPGKERELVAAISWSGSRTNYADSVKGRFTISRDNAKNTVYLQMNSLKPEDTAVYYCAAGWGYSASRYGYWGQGTQVTVSS”, “high polyreactivity”; for “QVQLVESGGGLVQAGGSLRLSCAASGLIFGWYAMGWYRQAPGKERELVASISRSGGSTYYADSVKGRFTISRDNAKNTVYLQMNSLKPEDTAVYYCAALYYGFRLTYGYDYWGQGTQVTVSS”, “high polyreactivity”.
The result for “QVQLVESGGGLVQAGGSLRLSCAASGLIFGYYAKGWNTQAPGKERELVADISSGGSSNYADSVKGRFTISRDNAKNTVYLQMMSLKPEVTAVYYCAARYSRWFGFWGQGTQVTVSS” reads “high polyreactivity”; that for “QVQLVESGGGLVQAGGSLRLSCAASGLIFGYYAMGWYRQAPGKERELVAAISWSGGRTYYADSVKGRFTISRDNAKNTVYLQMNSLKPEDTAVYYCAADTYPYIGGYYWGQVTQVTVSS”, “high polyreactivity”.
Regarding “QVQLVESGGGLVQAGGSLRLSCAASGLIFHFNAMGWYRQAPGKERELVAAITSIGGSTFYADSVKGRFTISRDNAKNTVYLQMNSLKPEDTAVYYCAAAISYFFPDYDYWGQGTQVTVSS”, the “polyreactivity (PSR sort gate)” value is “low polyreactivity”.
As for “QVQLVESGGGLVQAGGSLRLSCAASGLIFKDYAMGWYRQAPGKERELVAAISSSGGSTYYADSVKGRFTISRDNAKNTVYLQMNSLKPEDTAVYYCAARSFRYYSDYGYWGQGTQVTVSS”, the “polyreactivity (PSR sort gate)” value is given as “high polyreactivity”.
The result for “QVQLVESGGGLVQAGGSLRLSCAASGLIFKIYAMGWYRQAPGKERELVASISSNGGTYYADSVKGRFTISRDNAKKTVYLQMNSLKPEDTAVYYCNAKRVARYQYGASYNYWGQGTQVTVSS” reads “high polyreactivity”; that for “QVQLVESGGGLVQAGGSLRLSCAASGLIFKSYLMGSYRQAPGKERELVAGITGSGGTTYYADSVKGRFTISRDNAKNTVYLQMNSLKPEDTAVYYCAARSRSRPKYDYWGQGTQVTVSS”, “high polyreactivity”; that for “QVQLVESGGGLVQAGGSLRLSCAASGLIFKVYAMGWYRQAPGKEWELVAAITYSGGSTDYADSVKGRFTISRDNAKNTVNLQMNSLKPEDTAVYYCNVEKVGHVNSYGYDYWGQGTQVTVSS”, “low polyreactivity”.
For “QVQLVESGGGLVQAGGSLRLSCAASGLIFLTYAMGWYRQAPGKERELLATISGSTGGTYYADSVKGRFTISRDNAKNSVYLKMNSLKPEDTAVYYCNRRYGRSFRWGYCYWGEGTQVTVSS” the value was “low polyreactivity”.
The result for “QVQLVESGGGLVQAGGSLRLSCAASGLIFLYYAMGWYRQAPGKERELVAAISSSGSTYYADSGKGRFTISRDNAKNTVYLQMNSLKPEDTAVYYCAAAGYLYPYRYYYWGQGTQVTVSS” reads “high polyreactivity”.
Consider “QVQLVESGGGLVQAGGSLRLSCAASGLIFLYYAMGWYRQAPGKERELVAAISSSGSTYYADSVKGRFTISRDNAKNTVYLQMNSLKPEDTAVYYCAAAGYLYPYRYYYWGQGTQVTVSS”, for which the “polyreactivity (PSR sort gate)” value is reported as “high polyreactivity”.
The result for “QVQLVESGGGLVQAGGSLRLSCAASGLIFNFYAMGWYRPAPGKEREFVAAISWNAGSTYYADSVKGRFTISRDNAKNTVYLQMNSLKPEDTAVYYCNADQDYQGARPSGMDYWGQGTQVTVSS” reads “low polyreactivity”; that for “QVQLVESGGGLVQAGGSLRLSCAASGLIFNTYAMGWYRQAPGKERELVAAITDGGGTNYADSVKGRFTISRDNAKNTVYLQMNSLKPEDTAVYYCAARLASWPLTYDFQWYEYWVQGTQVTVSS”, “low polyreactivity”.
For “QVQLVESGGGLVQAGGSLRLSCAASGLIFNVNAMGWYRQAPRKERELVAAITGGGGSTYYADSVKGRFTISRDNAKNTVYLQMNSLKPEDTAVYYCAATTGLYTRYGDWGQVTQVTVSS” the value was “high polyreactivity”.
The result for “QVQLVESGGGLVQAGGSLRLSCAASGLIFPGYDMGWYRAAPGKVRELVAAISDSGANTYYADSVKVRFTISRDNAKNTVYLQMNSLKPEDTAVYYCAADSSWGYGTYFGRFDYWGQGTQVTVSS” reads “low polyreactivity”; that for “QVQLVESGGGLVQAGGSLRLSCAASGLIFPLYAMGWYRQAPGKERELVAAISRTGVSTDYADSVKGRFTISRDNAKNTVYLQMNSLKPEDTAVYYCNKVRTPRRRYDYWGQGTQVTVSS”, “low polyreactivity”.
In the case of “QVQLVESGGGLVQAGGSLRLSCAASGLIFPRYDIGWYRQAPGKESEFVAAITSGGGTYYADSVKGRFTLSRDNAKNTVYLQMNSVKPEDTAVYYCARDHYRHSRYFYRYDYWGQGTQVTVSS”, the “polyreactivity (PSR sort gate)” value is “low polyreactivity”.
The result for “QVQLVESGGGLVQAGGSLRLSCAASGLIFPSYARGWYRQAPGKERELVAGINSGGSTNYADSVKGRFTISRDNAKNTVYLQMNSLKPEDTAVYYCAKDNNYYWYVSPRDYWGQGTQVTVSS” reads “low polyreactivity”.
For “QVQLVESGGGLVQAGGSLRLSCAASGLIFPYYAMGWYREAPGKARELVASIRYSAGNTYYADSVKGRFTISRDNAKNTVYLQMNSLKPEDTAVYYCWYTQNTLGNYWGQGTQVTVSS” the value was “low polyreactivity”; for “QVQLVESGGGLVQAGGSLRLSCAASGLIFPYYTMGWYRQAPGKEGELVAVINRGGSTSYADSVKGRFTISRDNEKISVYLQMNSLKPEYTAVYYCARRTPYYTSYAFDSWGQGTQVTVSS”, “high polyreactivity”.
For “QVQLVESGGGLVQAGGSLRLSCAASGLIFQGYAMGWYRQAPGKEREFVAVITWSGGSTYYADSVKGRFTISRDNAKNTVYLQMNSLKPEDTAVYYCADDDVWYDFDYWGQGTQVTVSS” the value was “low polyreactivity”; for “QVQLVESGGGLVQAGGSLRLSCAASGLIFQVYDMGWYRQAPGKERELVAATSSGSKTNYADSVKGRFTISRDNAKNTVYLQMNSLKPEDTAVYYCAAGGPSTLDDYWGQGTQVTVSS”, “low polyreactivity”.
“QVQLVESGGGLVQAGGSLRLSCAASGLIFRFYAMGWYRQAPGKERELVAAISGGGGSTYYADSVKGRFTISRDNAKNTVYFQMNSLKPEDTAVYYCNTVNDKRAYGKMGYWGQGTQVTVSS”: the “polyreactivity (PSR sort gate)” value is recorded as “high polyreactivity”.
In the case of “QVQLVESGGGLVQAGGSLRLSCAASGLIFRGYAMGWYRQAPGKERELVAAISKSGGSTYYADSVKGRFTISRDNAKNTVYLQMNSLKPEDTAVYYCNARKHGSRTGGYYWGQGTQVTVSS”, the “polyreactivity (PSR sort gate)” value is “high polyreactivity”.
In the case of “QVQLVESGGGLVQAGGSLRLSCAASGLIFRHYAMGWYRQAPGKERELVAAINWDGTSTDYADSVKGRFTISRDNAKNTVYLQMNSLKPEDTAVYYCAAEGHTAFVVYRVSPLQYDYWGHGTQVTVSS”, the “polyreactivity (PSR sort gate)” value is reported as “low polyreactivity”.
The result for “QVQLVESGGGLVQAGGSLRLSCAASGLIFRIYAMGWYRQAPGKETELVAAISNSGGYTYYADSVKGRFTISRDNAKNTVYLQMNSLKPEDTAVYYCAAELRLWPWRRFDYWGQGTQVTVSS” reads “high polyreactivity”.

The values above are taken from the nanobody polyreactivity screen of Harvey et al. (2022).
